Data: PMC9584609

Target: T1, Kir2.1 tagged with mVenus and PAmCherry (human), P63252
T1 chain: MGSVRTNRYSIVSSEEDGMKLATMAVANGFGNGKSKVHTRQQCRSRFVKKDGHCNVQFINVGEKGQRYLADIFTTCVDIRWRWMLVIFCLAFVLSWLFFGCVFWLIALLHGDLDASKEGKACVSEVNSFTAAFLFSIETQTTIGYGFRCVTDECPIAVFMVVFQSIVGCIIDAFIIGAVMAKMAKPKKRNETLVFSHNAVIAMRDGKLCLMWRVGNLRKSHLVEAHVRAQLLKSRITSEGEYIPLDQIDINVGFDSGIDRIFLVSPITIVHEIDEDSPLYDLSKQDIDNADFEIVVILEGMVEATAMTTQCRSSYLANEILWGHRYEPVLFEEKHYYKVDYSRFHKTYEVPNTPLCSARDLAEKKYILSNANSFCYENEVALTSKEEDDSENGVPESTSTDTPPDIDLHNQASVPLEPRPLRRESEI
Test: native gel or EMSA; high-resolution clear native electrophoresis (hrCNE); lysate of transfected HEK293T cells in 0.1 M sodium phosphate with 0.5% digitonin or 20 mM DDM; 4-14% acrylamide gradient gel run at 4 °C; mVenus fluorescence scanned; VGLUTs and sialin with and without PNGaseF
Settings: remark: other sources report otherwise

B1: Kir2.1 tagged with mVenus and PAmCherry, P63252 1-427 (natural protein)
chain: T1 chain
  stoichiometry N: 4
